In PMC8489356:
Several values for one entry are separate records, joined by “and”; a condition that tells them apart may be missing. Equal values may be shown once.

Tests used:
[1] = biological target: His-tagged recombinant human prosaposin (PSAP) (human) (UniProt P07602); assay: ELISA
[2] = biological target: His-tagged recombinant human sortilin (human) (UniProt Q99523); assay: ELISA
Sequence of UniProt Q99523 (Q99523 78-755): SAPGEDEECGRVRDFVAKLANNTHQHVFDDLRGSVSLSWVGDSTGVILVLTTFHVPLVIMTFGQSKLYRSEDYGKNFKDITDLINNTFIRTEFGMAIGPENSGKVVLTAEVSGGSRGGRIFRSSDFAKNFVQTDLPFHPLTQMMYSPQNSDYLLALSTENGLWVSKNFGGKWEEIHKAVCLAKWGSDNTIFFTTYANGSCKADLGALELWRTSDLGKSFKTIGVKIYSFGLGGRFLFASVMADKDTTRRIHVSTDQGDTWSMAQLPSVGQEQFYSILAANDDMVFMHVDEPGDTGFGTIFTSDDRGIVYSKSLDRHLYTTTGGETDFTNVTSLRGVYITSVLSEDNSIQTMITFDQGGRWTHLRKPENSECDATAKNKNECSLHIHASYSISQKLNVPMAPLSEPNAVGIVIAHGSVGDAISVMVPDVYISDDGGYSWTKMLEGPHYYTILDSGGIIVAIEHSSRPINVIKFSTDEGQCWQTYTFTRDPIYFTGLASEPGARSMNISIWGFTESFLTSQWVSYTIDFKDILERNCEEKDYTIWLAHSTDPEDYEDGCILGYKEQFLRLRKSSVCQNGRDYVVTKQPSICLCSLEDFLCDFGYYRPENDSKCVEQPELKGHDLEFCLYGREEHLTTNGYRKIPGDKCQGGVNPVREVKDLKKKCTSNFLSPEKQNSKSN

Sequence of UniProt P07602 (P07602 17-524): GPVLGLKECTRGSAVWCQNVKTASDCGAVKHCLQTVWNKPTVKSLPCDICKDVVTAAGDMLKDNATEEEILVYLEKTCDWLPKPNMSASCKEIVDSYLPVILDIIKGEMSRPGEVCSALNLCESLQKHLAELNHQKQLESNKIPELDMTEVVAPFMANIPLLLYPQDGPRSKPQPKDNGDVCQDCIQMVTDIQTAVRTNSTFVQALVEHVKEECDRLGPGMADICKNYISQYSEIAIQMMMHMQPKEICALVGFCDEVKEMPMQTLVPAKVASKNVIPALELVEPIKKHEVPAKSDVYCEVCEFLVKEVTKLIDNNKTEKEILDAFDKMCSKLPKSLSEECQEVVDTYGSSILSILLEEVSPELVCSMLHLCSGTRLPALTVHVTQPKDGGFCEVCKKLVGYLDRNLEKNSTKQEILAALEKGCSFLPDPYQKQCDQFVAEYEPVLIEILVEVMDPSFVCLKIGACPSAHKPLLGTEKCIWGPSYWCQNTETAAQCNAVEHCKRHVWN

EC50 [1] | EC50 [2] | Substance
1.14 nM and 3.9 nM | 1.8 nM and 0.31 nM | Fc:PGRN (huPGRN fused to a normal Fc) (Fc fusion)
1.74 nM and 5.1 nM | 2.2 nM and 0.47 nM | protein transport vehicle:PGRN (PTV:PGRN), expressed in Expi293 cells (Fc fusion)
